Data: publication doi:10.1101/2023.12.09.570830

Molecular target: UmbC1 (untagged, in the Umb1 particle) (Streptomyces coelicolor A3(2) (endogenous))
Test: cryo-EM structure

## UmbB1 (natural protein)
  stoichiometry N: 5
